In patent publication US8372810B2, “Anti-tumor drug, medicament, composition, and use thereof” (Gene Signal International SA, priority 2007, dated 2013):

System: fibroblast cell line MRC5
Test: Proliferation of other cell lines: MRC5
Type: cell-based
Settings: even at high concentration

B1: 497C-T2: entire LEL domain of protein 497C, SEQ ID NO:3 (112 amino acids); as produced SEQ ID NO:8, with N-terminal His-Tag and C-terminal tail, 24 kD (protein, listed as Homo sapiens)
chain: MHHHHHHSSGLVPRGSGMKETAAAKFERQHMDSPDLGTDDDDKISGFVFRHEIKDTFLRTYTDAMQTYNGNDERSRAVDHVQRSLSCCGVQNYTNWSTSPYFLEHGIPPSCCMNETDCNPQDLHNLTVAATKVNQKGCYDLVTSFMETNMGIIAGDRASPQPWRYRIRILAPSTSLRPHSSTTTTTTXIRLLTKPERKLSWLLPPLSNN
modifications: X: residue not identified in the source
- anti-proliferative effect: without any detectable anti-proliferative effect
